Test results taken from US20220387487A1, “COMPOSITIONS AND METHODS FOR TREATMENT OF CANCER” (Aleta Biotherapeutics Inc., priority 2019, published 2022).
Read-outs that look alike come from different tables or passages of the source.

What was measured:
CLEC12A [1] = assay: ELISA binding of fusion proteins (FMC63 coat, HRP-anti-His detection); set-up: species or system human; settings: purified fusion protein
Protocol: The binding of the biparatopic fusion proteins to CLEC12A was also examined by ELISA. […] The plate was left to incubate overnight at 4° C. The coated plate was blocked with TBS/0.3% nonfat dry milk (NFD) for 60 minutes at RT.

CLEC12A Q form = molecular target: T1, CLEC12A Q form (Homo sapiens, UniProt Q5QGZ9, K244Q); assay: Flow cytometry binding to HEK-293T cells transfected with CLEC12A amino acid 254 Q version; settings: FIG. 19
T1 construct: transfected with full-length CLEC12A (UniProt Q5QGZ9-1) cDNAs; expressed in transfected cells; host or cells: HEK-293T
T1 sequence (Q5QGZ9 1-275 isoform Q5QGZ9-1 K254Q): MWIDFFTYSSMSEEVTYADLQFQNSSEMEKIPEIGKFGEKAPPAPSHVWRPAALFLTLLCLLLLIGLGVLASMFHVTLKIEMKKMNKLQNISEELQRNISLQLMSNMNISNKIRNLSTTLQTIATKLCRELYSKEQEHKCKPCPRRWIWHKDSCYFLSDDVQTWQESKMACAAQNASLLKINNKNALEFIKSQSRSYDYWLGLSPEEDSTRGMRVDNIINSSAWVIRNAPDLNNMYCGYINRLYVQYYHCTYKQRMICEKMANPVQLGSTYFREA
Protocol: Given the unique binding properties of VHH clone 2H3 relative to the anti-CLEC12A scFv we tested the binding properties of a biparatopic fusion protein containing both the VHH clone 2H3 and an anti-CLEC12A scFv. HEK-293T cells were transfected with full-length CLEC12A (UniProt Q5QGZ9-1) cDNAs expressing the amino acid 254 “K” version of CLEC12A (GenScript) or a version with “Q” at this position generated by mutagenesis. The cells were removed with Accutase and washed with PBS, suspended in 50 μL FACS buffer (FB, PBS+1% BSA and 0.1% sodium azide) and blocked with human Fc block (Becton Dickinson) at room temperature for 10 minutes. Then, 50 μl of the purified fusion proteins #186, #330 or #357 diluted in FACS buffer (starting at 3 μg/ml with 3 fold dilutions) were added. The cell/fusion protein mixture was incubated for 30 minutes at 4° C. and then washed twice with FACS buffer. The cells were suspended in 100 μl of FACS buffer, stained with HIB19-PE (BioLegend […]), and incubated for 30 minutes at 4° C. The cells were washed twice with FACS buffer, fixed with a final concentration of 1% PFA in PBS (Thermo Scientific) and then analyzed by flow cytometry.

CLEC12A [2] = molecular target: T2, CLEC12A (Homo sapiens, UniProt Q5QGZ9, K244Q); assay: ELISA of fusion proteins, FMC63 coat, biotinylated CLEC12A detection; type: binding
T2 sequence (Q5QGZ9 65-265 K244Q): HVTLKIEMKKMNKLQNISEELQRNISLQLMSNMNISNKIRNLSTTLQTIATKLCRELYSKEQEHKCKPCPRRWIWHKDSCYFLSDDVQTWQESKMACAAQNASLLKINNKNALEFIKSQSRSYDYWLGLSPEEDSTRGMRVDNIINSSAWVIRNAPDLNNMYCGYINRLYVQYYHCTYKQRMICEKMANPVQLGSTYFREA

[3] = system: CLL-1 positive U937 cells; assay: Flow cytometry binding of fusion proteins to U937 cells (FMC63-PE detection); set-up: species or system human; settings: FIG. 20
Protocol: The ability of an expressed biparatopic construct comprising the fusion protein containing a CD19 variant, an anti-CLL-1 scFv, and an anti-CLL-1 VHH (#357) to bind CLL-1 positive U937 cells was evaluated relative to the binding of an expressed construct containing a fusion protein comprised of a CD19 variant and an anti-CLL-1 VHH (#330) and an expressed construct containing a fusion protein comprised of a wild type CD19 and an anti-CLL-1 scFv (#186). […] Approximately 5×10^5 cells were aliquoted per sample. The cells were spun, washed with FB, and then suspended in 100 μl of the biparatopic or monospecific fusion protein dilution (supernatant or purified starting at 10 μg/ml) in FB. The cell/fusion protein mixture was incubated for 30 minutes at 4° C. and then washed 2× with FB. […] After washing 2× with FB, the cells were fixed with a final concentration of 1% PFA in PBS (Thermo Scientific) and then analyzed by flow cytometry (Accuri C6, Becton-Dickinson).
To further confirm the binding and cytotoxicity capabilities of an expressed biparatopic fusion protein comprising a CD19 variant, an anti-CLL-1 scFv, and an anti-CLL-1 VHH, a construct was generated with the same features as construct #357 but lacking the HIS tag. […] The cells were washed twice with FACS buffer, fixed with a final concentration of 1% PFA in PBS (Thermo Scientific) and then analyzed by flow cytometry. […]

B1: #330: fusion protein comprised of a CD19 variant and an anti-CLL-1 VHH (2H3); SEQ ID NO:305 (protein)
chain: MEFGLSWVFLVALFRGVQCQVQLQESGGGLVQAGGSLRLSCVASGSIRSINVMGWYRQAPGKQRELVAACASDGNTYYADSVKGRFTISRDNAEKTVYLQMNNLKPDDTAVYYCDANSRGNYYSGQGTQVTVSSTSGPGGQGAGGGGSGGGGSGGGGSGGGGSPEEPLVVKVEEGDTAALWCLKGTSDGPTQQLTWSRESPLKPFLKYSLGVPGLGVHVRPDAISVVIRNVSQQMGGFYLCQPGPPSEKAWQPGWTVNVEGSGELFRWNVSDLGGLGCGLKNRSSEGPSSPSGKLMSPKLYVWAKDRPEIWEGEPPCLPPRDSLNQSLSRDLTVAPGSTLWLSCGVPPDSVSRGPLSWTHVHPKGPKSLLSLELKDDRPARDMWVMGTSLMLPRATAQDAGKWYCHRGNLTMSFHLEITARPSRHHHHHH
For B1, which EC50 (CLEC12A [1]; FMC63 coat, read-out: CLEC12A binding (ELISA EC50)) is on record?
The EC50 was 13 pM.

And the EC50 (CLEC12A [1]; Table 8, read-out: EC50 of binding by ELISA)?
Its EC50 is 10 pM.

What about the “binding to the Q form of CLEC12A” value (CLEC12A Q form) of the same molecule?
The value was “binds very well”.

And the “CLEC12A binding EC50” value (CLEC12A [2])?
Its value is 1.4 ng/mL.

And the EC50 (CLEC12A [2]; read-out: CLEC12A binding EC50)?
The EC50 was 29.9 pM.

B2: #440: fusion protein comprising an anti-CLEC12A VHH, an anti-CD33 scFv, and a CD19 ECD; SEQ ID NO:321 (protein)
chain: MEFGLSWVFLVALFRGVQCQVQLVQSGAEVKKPGESVKVSCKASGYTFTNYGMNWVKQAPGQGLEWMGWINTYTGEPTYADKFQGRVTMTTDTSTSTAYMEIRNLGGDDTAVYYCARWSWSDGYYVYFDYWGQGTSVTVSSGGGGSGGGGSGGGGSDIVMTQSPDSLTVSLGERTTINCKSSQSVLDSSTNKNSLAWYQQKPGQPPKLLLSWASTRESGIPDRFSGSGSGTDFTLTIDSPQPEDSATYYCQQSAHFPITFGQGTRLEIKGGGGSGGGGSGGGGSGGGGSQVQLQESGGGLVQAGGSLRLSCVASGSIRSINVMGWYRQAPGKQRELVAACASDGNTYYADSVKGRFTISRDNAEKTVYLQMNNLKPDDTAVYYCDANSRGNYYSGQGTQVTVSSTSGPGGQGAGGGGSGGGGSGGGGSGGGGSPEEPLVVKVEEGDTAALWCLKGTSDGPTQQLTWSRESPLKPFLKYSLGVPGLGVHVRPDAISVVIRNVSQQMGGFYLCQPGPPSEKAWQPGWTVNVEGSGELFRWNVSDLGGLGCGLKNRSSEGPSSPSGKLMSPKLYVWAKDRPEIWEGEPPCLPPRDSLNQSLSRDLTVAPGSTLWLSCGVPPDSVSRGPLSWTHVHPKGPKSLLSLELKDDRPARDMWVMGTSLMLPRATAQDAGKWYCHRGNLTMSFHLEITARPSRHHHHHH
Which “binding to U937 cells” value [3] does the source give for B2 here?
Its value is “capable of binding to U937 cells”.
